Here are results for 1 substance from PMC7518097.

The target of the experiment is Kv7.2 G279S (human). The experiment can be described thus: co-IP; lysates of transfected cells incubated with protein A magnetic beads pre-coated with guinea pig anti-KCNQ2-C2 antibodies; CaM detected by western blot (mouse anti-calmodulin); CaM band normalized to WT. (In general: Immunoblotting shows a protein as a band on a membrane.)

Consider “calmodulin (from UniProt P0DP23 1-149) (natural protein)”, for which the CaM co-immunoprecipitated, normalized to WT (relative to WT) was determined as 0.71.
